Where two headings read alike, the source gives them in different places.
How the values were obtained:
[1] = target: GITR expressed on CHO cells (Homo sapiens (Human)) (UniProt Q9Y5U5); test: flow cytometry on GITR-expressing CHO cells, MFI-FL4
[2] = target: GITR expressed on CHO cells (Homo sapiens (Human)) (UniProt Q9Y5U5); test: as above; remark: listed apart in the source

Chain of GITR expressed on CHO cells (Homo sapiens (Human)) (Q9Y5U5 26-241 limits assumed): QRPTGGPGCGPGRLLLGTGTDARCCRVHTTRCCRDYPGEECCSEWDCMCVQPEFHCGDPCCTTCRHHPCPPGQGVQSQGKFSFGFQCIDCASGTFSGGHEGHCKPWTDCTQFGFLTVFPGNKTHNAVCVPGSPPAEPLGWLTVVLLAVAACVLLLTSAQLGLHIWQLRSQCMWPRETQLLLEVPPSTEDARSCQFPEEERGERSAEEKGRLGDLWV

- EC50 (read off the curve) [1]: 3 nM
- EC50 (read off the curve) [2]: 1 nM
Substance: TRX-518 (antibody)
